# Data as given in paper PMC5940254 (The Journal of General Physiology, 2018).
# Like-named read-outs stand apart in the source and are kept apart here.
# B1: ASIC1A channel, HA- and GFP-tagged (trimer control) (natural protein)
# chain: MELKTEEEEVGGVQPVSIQAFASSSTLHGLAHIFSYERLSLKRALWALCFLGSLAVLLCVCTERVQYYFCYHHVTKLDEVAASQLTFPAVTLCNLNEFRFSQVSKNDLYHAGELLALLNNRYEIPDTQMADEKQLEILQDKANFRSFKPKPFNMREFYDRAGHDIRDMLLSCHFRGEACSAEDFKVVFTRYGKCYTFNSGQDGRPRLKTMKGGTGNGLEIMLDIQQDEYLPVWGETDETSFEAGIKVQIHSQDEPPFIDQLGFGVAPGFQTFVSCQEQRLIYLPSPWGTCNAVTMDSDFFDSYSITACRIDCETRYLVENCNCRMVHMPGDAPYCTPEQYKECADPALDFLVEKDQEYCVCEMPCNLTRYGKELSMVKIPSKASAKYLAKKFNKSEQYIGENILVLDIFFEVLNYETIEQKKAYEIAGLLGDIGGQMGLFIGASILTVLELFDYAYEVIKHRLCRRGKCQKEAKRSSADKGVALSLDDVKRHNPCESLRGHPAGMTYAANILPHHPARGTFEDFTC
# B2: TREK1 channel, HA- and/or GFP-tagged (dimer and monomer controls) (natural protein)
# chain: MLASASRERPGYTAGVAAPDLLDPKSAAQNSKPRLSFSSKPTVLASRVESDSAINVMKWKTVSTIFLVVVLYLIIGATVFKALEQPQEISQRTTIVIQKQTFIAQHACVNSTELDELIQQIVAAINAGIIPLGNSSNQVSHWDLGSSFFFAGTVITTIGFGNISPRTEGGKIFCIIYALLGIPLFGFLLAGVGDQLGTIFGKGIAKVEDTFIKWNVSQTKIRIISTIIFILFGCVLFVALPAVIFKHIEGWSALDAIYFVVITLTTIGFGDYVAGGSDIEYLDFYKPVVWFWILVGLAYFAAVLSMIGDWLRVISKKTKEEVGEFRAHAAEWTANVTAEFKETRRRLSVEIYDKFQRATSVKRKLSAELAGNHNQELTPCRRTLSVNHLTSEREVLPPLLKAESIYLNGLTPHCAGEDIAVIENMK
# Legend:
# Assay in all cases: single-molecule pull-down
# [1] = biological target: Ci-VSP phosphatase-only protein (PDo) (Ciona intestinalis)
# [2] = biological target: Ci-VSP phosphatase-only protein (PDo) (Ciona intestinalis); remark: listed apart in the source
# [3] = biological target: Ci-VSP voltage-sensing domain only protein (VSDo) (Ciona intestinalis)
# [4] = biological target: Ci-VSP voltage-sensing domain only protein (VSDo) (Ciona intestinalis); remark: listed apart in the source
# [5] = biological target: the molecule itself
molecule,measurement,setting,value
Ci-VSP phosphatase-only protein (PDo) (domain or fragment),percent of spots bleaching in a single step,[1],57%
same,percent of spots bleaching in two steps,[1],34%
same,percent of spots bleaching in a single step,[2],80%
same,stoichiometry N,[2],2
Ci-VSP voltage-sensing domain only protein (VSDo) (domain or fragment),percent of spots bleaching in a single step,[3],37%
same,percent of spots bleaching in two steps,[3],55%
same,percent of spots bleaching in a single step,[4],65%
same,stoichiometry N,[4],2
B1,stoichiometry N,[5],3
B2,stoichiometry N,[5],2
